Literature values in article PMC11866742.

Target: SIRPα (Homo sapiens) (UniProt P78324)
Sequence of UniProt P78324 (P78324 31-373): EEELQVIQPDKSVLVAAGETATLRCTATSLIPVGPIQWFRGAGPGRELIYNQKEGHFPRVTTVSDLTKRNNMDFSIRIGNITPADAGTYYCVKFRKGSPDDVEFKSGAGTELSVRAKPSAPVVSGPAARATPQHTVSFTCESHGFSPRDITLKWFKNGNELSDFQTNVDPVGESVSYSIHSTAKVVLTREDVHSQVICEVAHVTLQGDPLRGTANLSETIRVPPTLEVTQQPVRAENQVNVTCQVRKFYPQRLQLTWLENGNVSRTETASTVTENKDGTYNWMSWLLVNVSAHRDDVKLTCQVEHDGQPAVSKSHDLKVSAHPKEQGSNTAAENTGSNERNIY

CD47 (from UniProt Q08722)
Kd: 1500 nM
